Test results from PMC4027189.
pKd: −log10 of the molar value.

What was measured:
[1] = molecular target: H3–H4 (H3 refolded with labeled H4 E63C) (UniProt P61830); assay: FRET or BRET
[2] = molecular target: H2A–H2B (H2A T118C labeled with Alexa-488 refolded with H2B) (UniProt P04911); assay: FRET or BRET
Sequence of UniProt P04911 (P04911 2-132, chain 1 of 2): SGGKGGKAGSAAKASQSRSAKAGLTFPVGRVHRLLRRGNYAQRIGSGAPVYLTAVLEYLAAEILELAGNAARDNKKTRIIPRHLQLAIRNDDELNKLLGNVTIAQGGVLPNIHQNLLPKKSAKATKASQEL
Sequence of UniProt P04911 (P02294 2-131 T119C, chain 2 of 2, further chain): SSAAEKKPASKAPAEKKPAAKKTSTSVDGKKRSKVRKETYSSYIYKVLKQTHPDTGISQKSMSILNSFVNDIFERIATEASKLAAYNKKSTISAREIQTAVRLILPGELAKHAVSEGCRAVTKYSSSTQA

Q: “Scm3, full length, labeled with Atto-647N at cysteine 41 (from UniProt Q12334 1-223) (natural protein)” was tested. Which pKd [1] did it give?
A: 6.71

Q: And the pKd [2]?
A: 6.52
